{"source": "the Human Domainome abundance scans (Beltran et al. 2025)", "parents": {"B1": {"name": "1-phosphatidylinositol 4,5-bisphosphate phosphodiesterase gamma-2, residues 772 to 827; numbered along this chain, P16885 (parent)", "chain": "RTVKALYDYKAKRSDELSFCRGALIHNVSKEPGGWWKGDYGTRIQQYFPSNYVEDI"}, "B2": {"name": "Transcriptional repressor p66-beta, residues 415 to 455; numbered along this chain, Q8WXI9 (parent)", "chain": "VEPFVCAQCRTDFTPHWKQEKNGKILCEQCMTSNQKKALKA"}}, "note": "± gives the uncertainty stated by the source."}
{"variants_of": "B1", "experiment": "abundance fitness (aPCA) (normalised: wild type 0, dead -1); higher = more abundant; growth selection in yeast, the domain comes from the species named", "settings": "Homo sapiens"}
{"variant": "RCVKALYDYKAKRSDELSFCRGALIHNVSKEPGGWWKGDYGTRIQQYFPSNYVEDI", "note": "[T2C]", "abundance fitness": "-0.344 ± 0.2"}
{"variant": "RFVKALYDYKAKRSDELSFCRGALIHNVSKEPGGWWKGDYGTRIQQYFPSNYVEDI", "note": "[T2F]", "abundance fitness": "-0.702 ± 0.41"}
{"variant": "RGVKALYDYKAKRSDELSFCRGALIHNVSKEPGGWWKGDYGTRIQQYFPSNYVEDI", "note": "[T2G]", "abundance fitness": "-0.578 ± 0.1"}
{"variant": "RAVKALYDYKAKRSDELSFCRGALIHNVSKEPGGWWKGDYGTRIQQYFPSNYVEDI", "note": "[T2A]", "abundance fitness": "-0.287 ± 0.11"}
{"variant": "REVKALYDYKAKRSDELSFCRGALIHNVSKEPGGWWKGDYGTRIQQYFPSNYVEDI", "note": "[T2E]", "abundance fitness": "-0.279 ± 0.28"}
{"variant": "TTVKALYDYKAKRSDELSFCRGALIHNVSKEPGGWWKGDYGTRIQQYFPSNYVEDI", "note": "[R1T]", "abundance fitness": "0.417 ± 0.11"}
{"variant": "ETVKALYDYKAKRSDELSFCRGALIHNVSKEPGGWWKGDYGTRIQQYFPSNYVEDI", "note": "[R1E]", "abundance fitness": "-0.056 ± 0.14"}
{"variant": "YTVKALYDYKAKRSDELSFCRGALIHNVSKEPGGWWKGDYGTRIQQYFPSNYVEDI", "note": "[R1Y]", "abundance fitness": "0.164 ± 0.061"}
{"variant": "CTVKALYDYKAKRSDELSFCRGALIHNVSKEPGGWWKGDYGTRIQQYFPSNYVEDI", "note": "[R1C]", "abundance fitness": "-0.495 ± 0.38"}
{"variant": "ITVKALYDYKAKRSDELSFCRGALIHNVSKEPGGWWKGDYGTRIQQYFPSNYVEDI", "note": "[R1I]", "abundance fitness": "-0.141 ± 0.32"}
{"variant": "VTVKALYDYKAKRSDELSFCRGALIHNVSKEPGGWWKGDYGTRIQQYFPSNYVEDI", "note": "[R1V]", "abundance fitness": "0.257 ± 0.36"}
{"variant": "WTVKALYDYKAKRSDELSFCRGALIHNVSKEPGGWWKGDYGTRIQQYFPSNYVEDI", "note": "[R1W]", "abundance fitness": "0.23 ± 0.16"}
{"variant": "MTVKALYDYKAKRSDELSFCRGALIHNVSKEPGGWWKGDYGTRIQQYFPSNYVEDI", "note": "[R1M]", "abundance fitness": "-0.07 ± 0.25"}
{"variant": "GTVKALYDYKAKRSDELSFCRGALIHNVSKEPGGWWKGDYGTRIQQYFPSNYVEDI", "note": "[R1G]", "abundance fitness": "-0.328 ± 0.12"}
{"variants_of": "B2", "experiment": "abundance fitness (aPCA) (normalised: wild type 0, dead -1); higher = more abundant; growth selection in yeast, the domain comes from the species named", "settings": "Homo sapiens"}
{"variant": "L39V", "abundance fitness": "0.078 ± 0.061"}
{"variant": "L39D", "abundance fitness": "-0.558 ± 0.3"}
{"variant": "L39I", "abundance fitness": "0.122 ± 0.18"}
{"variant": "L39F", "abundance fitness": "-0.425 ± 0.26"}
{"variant": "L39N", "abundance fitness": "0.54 ± 0.45"}
{"variant": "L39C", "abundance fitness": "-0.1 ± 0.16"}
{"variant": "L39G", "abundance fitness": "0.157 ± 0.052"}
{"variant": "L39H", "abundance fitness": "-0.078 ± 0.14"}
{"variant": "L39A", "abundance fitness": "-0.083 ± 0.079"}
{"variant": "L39Q", "abundance fitness": "-0.291 ± 0.17"}
{"variant": "L39Y", "abundance fitness": "0.577 ± 0.33"}
{"variant": "L39T", "abundance fitness": "-0.199 ± 0.13"}
{"variant": "L39K", "abundance fitness": "-0.015 ± 0.13"}
{"variant": "L39R", "abundance fitness": "-0.016 ± 0.061"}
{"variant": "L39E", "abundance fitness": "-0.108 ± 0.1"}
{"variant": "L39S", "abundance fitness": "0.094 ± 0.097"}
{"variant": "K24R", "abundance fitness": "0.028 ± 0.059"}
{"variant": "K24T", "abundance fitness": "-0.174 ± 0.14"}
{"variant": "K24V", "abundance fitness": "-0.148 ± 0.076"}
{"variant": "K24G", "abundance fitness": "-0.02 ± 0.058"}
{"variant": "K24A", "abundance fitness": "-0.079 ± 0.073"}
{"variant": "K24H", "abundance fitness": "0.013 ± 0.42"}
{"variant": "K24L", "abundance fitness": "-0.106 ± 0.07"}
{"variant": "K24E", "abundance fitness": "0.17 ± 0.094"}
{"variant": "K24D", "abundance fitness": "-0.166 ± 0.47"}
{"variant": "K24C", "abundance fitness": "-0.213 ± 0.15"}
{"variant": "K24Q", "abundance fitness": "0.097 ± 0.094"}
{"variant": "K24S", "abundance fitness": "-0.228 ± 0.095"}
{"variant": "K24M", "abundance fitness": "-0.082 ± 0.11"}
{"variant": "K36M", "abundance fitness": "-0.078 ± 0.09"}
{"variant": "K36N", "abundance fitness": "0.14 ± 0.26"}
{"variant": "K36V", "abundance fitness": "-0.277 ± 0.07"}
{"variant": "K36G", "abundance fitness": "-0.006 ± 0.053"}
{"variant": "K36T", "abundance fitness": "-0.024 ± 0.075"}
{"variant": "K36E", "abundance fitness": "-0.09 ± 0.082"}
{"variant": "K36R", "abundance fitness": "-0.168 ± 0.068"}
{"variant": "K36A", "abundance fitness": "-0.062 ± 0.073"}
{"variant": "K36Q", "abundance fitness": "0.105 ± 0.14"}
{"variant": "K36W", "abundance fitness": "-0.256 ± 0.085"}
{"variant": "K36C", "abundance fitness": "-0.275 ± 0.12"}
{"variant": "K36S", "abundance fitness": "-0.113 ± 0.089"}
{"variant": "K36L", "abundance fitness": "-0.329 ± 0.11"}
{"variant": "K36P", "abundance fitness": "-0.242 ± 0.14"}
{"variant": "K36I", "abundance fitness": "-0.198 ± 0.4"}
{"variant": "K36F", "abundance fitness": "-0.324 ± 0.17"}
{"variant": "K36D", "abundance fitness": "-0.239 ± 0.14"}
{"variant": "L26P", "abundance fitness": "-0.125 ± 0.088"}
{"variant": "L26F", "abundance fitness": "0.003 ± 0.12"}
{"variant": "L26D", "abundance fitness": "-0.295 ± 0.097"}
{"variant": "L26Q", "abundance fitness": "-0.075 ± 0.11"}
{"variant": "L26S", "abundance fitness": "-0.077 ± 0.086"}
{"variant": "L26R", "abundance fitness": "-0.145 ± 0.067"}
{"variant": "L26W", "abundance fitness": "-0.113 ± 0.1"}
{"variant": "L26V", "abundance fitness": "-0.196 ± 0.073"}
{"variant": "L26N", "abundance fitness": "-0.411 ± 0.22"}
{"variant": "L26M", "abundance fitness": "0.358 ± 0.37"}
{"variant": "L26C", "abundance fitness": "-0.075 ± 0.27"}
{"variant": "L26I", "abundance fitness": "-0.004 ± 0.2"}
{"variant": "L26H", "abundance fitness": "0.12 ± 0.38"}
{"variant": "L26E", "abundance fitness": "-0.194 ± 0.093"}
{"variant": "L26K", "abundance fitness": "-0.218 ± 0.13"}
{"variant": "L26G", "abundance fitness": "-0.304 ± 0.059"}
{"variant": "L26T", "abundance fitness": "-0.39 ± 0.16"}
{"variant": "N34W", "abundance fitness": "-0.67 ± 0.12"}
{"variant": "N34G", "abundance fitness": "-0.156 ± 0.07"}
{"variant": "N34F", "abundance fitness": "-0.206 ± 0.13"}
{"variant": "N34P", "abundance fitness": "-0.257 ± 0.11"}
{"variant": "N34C", "abundance fitness": "-0.197 ± 0.091"}
{"variant": "N34I", "abundance fitness": "-0.088 ± 0.41"}
{"variant": "N34V", "abundance fitness": "-0.223 ± 0.065"}
{"variant": "N34R", "abundance fitness": "-0.179 ± 0.064"}
{"variant": "N34K", "abundance fitness": "-0.254 ± 0.14"}
{"variant": "N34E", "abundance fitness": "0.127 ± 0.073"}
{"variant": "N34Y", "abundance fitness": "-0.287 ± 0.18"}
{"variant": "N34A", "abundance fitness": "-0.076 ± 0.077"}
{"variant": "N34Q", "abundance fitness": "-0.083 ± 0.082"}
{"variant": "N34T", "abundance fitness": "-0.199 ± 0.13"}
{"variant": "N34M", "abundance fitness": "-0.371 ± 0.2"}
{"variant": "N34H", "abundance fitness": "-0.077 ± 0.1"}
{"variant": "N34L", "abundance fitness": "-0.327 ± 0.092"}
{"variant": "Q29D", "abundance fitness": "-0.083 ± 0.25"}
{"variant": "Q29V", "abundance fitness": "-0.389 ± 0.086"}
{"variant": "Q29P", "abundance fitness": "-0.141 ± 0.12"}
{"variant": "Q29Y", "abundance fitness": "-0.329 ± 0.32"}
{"variant": "Q29K", "abundance fitness": "0.086 ± 0.11"}
{"variant": "Q29R", "abundance fitness": "0.02 ± 0.058"}
{"variant": "Q29E", "abundance fitness": "-0.097 ± 0.14"}
{"variant": "Q29T", "abundance fitness": "-0.253 ± 0.12"}
{"variant": "Q29S", "abundance fitness": "-0.156 ± 0.093"}
{"variant": "Q29M", "abundance fitness": "-0.14 ± 0.095"}
{"variant": "Q29W", "abundance fitness": "-0.3 ± 0.15"}
{"variant": "Q29H", "abundance fitness": "0.333 ± 0.12"}
{"variant": "Q29I", "abundance fitness": "-0.177 ± 0.16"}
{"variant": "Q29L", "abundance fitness": "-0.042 ± 0.087"}
{"variant": "Q29C", "abundance fitness": "-0.491 ± 0.36"}
{"variant": "Q29G", "abundance fitness": "-0.15 ± 0.07"}
{"variant": "Q29F", "abundance fitness": "-0.153 ± 0.12"}
{"variant": "E28H", "abundance fitness": "-0.066 ± 0.29"}
{"variant": "E28R", "abundance fitness": "-0.343 ± 0.078"}
{"variant": "E28Q", "abundance fitness": "-0.222 ± 0.12"}
{"variant": "E28N", "abundance fitness": "0.03 ± 0.13"}
{"variant": "E28L", "abundance fitness": "-0.181 ± 0.086"}
{"variant": "E28F", "abundance fitness": "-0.356 ± 0.21"}
{"variant": "E28C", "abundance fitness": "0.074 ± 0.23"}
{"variant": "E28W", "abundance fitness": "-0.307 ± 0.096"}
{"variant": "E28G", "abundance fitness": "-0.066 ± 0.072"}
{"variant": "E28I", "abundance fitness": "-0.418 ± 0.13"}
{"variant": "E28P", "abundance fitness": "-0.178 ± 0.098"}
{"variant": "E28K", "abundance fitness": "-0.062 ± 0.17"}
{"variant": "E28M", "abundance fitness": "-0.159 ± 0.11"}
{"variant": "E28Y", "abundance fitness": "-0.16 ± 0.13"}
{"variant": "E28S", "abundance fitness": "-0.006 ± 0.087"}
{"variant": "E28D", "abundance fitness": "0.08 ± 0.17"}
{"variant": "E28A", "abundance fitness": "-0.122 ± 0.091"}
{"variant": "E28T", "abundance fitness": "0.029 ± 0.17"}
{"variant": "M31P", "abundance fitness": "-0.97 ± 0.29"}
{"variant": "M31G", "abundance fitness": "0.01 ± 0.059"}
{"variant": "M31T", "abundance fitness": "-0.054 ± 0.12"}
{"variant": "M31V", "abundance fitness": "-0.083 ± 0.069"}
{"variant": "M31K", "abundance fitness": "-0.043 ± 0.14"}
{"variant": "M31R", "abundance fitness": "-0.178 ± 0.062"}
{"variant": "M31Q", "abundance fitness": "0.05 ± 0.086"}
{"variant": "M31L", "abundance fitness": "-0.274 ± 0.11"}
{"variant": "M31D", "abundance fitness": "-0.106 ± 0.11"}
{"variant": "M31S", "abundance fitness": "-0.042 ± 0.12"}
{"variant": "M31Y", "abundance fitness": "0.161 ± 0.19"}
{"variant": "M31E", "abundance fitness": "-0.033 ± 0.085"}
{"variant": "M31W", "abundance fitness": "-0.041 ± 0.072"}
{"variant": "M31A", "abundance fitness": "-0.038 ± 0.07"}
{"variant": "Q35V", "abundance fitness": "-0.339 ± 0.086"}
{"variant": "Q35C", "abundance fitness": "-0.218 ± 0.14"}
{"variant": "Q35M", "abundance fitness": "-0.157 ± 0.18"}
{"variant": "Q35G", "abundance fitness": "-0.152 ± 0.058"}
{"variant": "Q35L", "abundance fitness": "-0.365 ± 0.1"}
{"variant": "Q35S", "abundance fitness": "-0.087 ± 0.19"}
{"variant": "Q35K", "abundance fitness": "-0.136 ± 0.26"}
